In patent publication US20110178017A1 (PHASEBIO PHARMACEUTICALS, published 2011):

T1: human Vasoactive Intestinal Peptide Receptor 1 (VPAC1) (human, UniProt P32241 31-457)
T1 sequence (looked up): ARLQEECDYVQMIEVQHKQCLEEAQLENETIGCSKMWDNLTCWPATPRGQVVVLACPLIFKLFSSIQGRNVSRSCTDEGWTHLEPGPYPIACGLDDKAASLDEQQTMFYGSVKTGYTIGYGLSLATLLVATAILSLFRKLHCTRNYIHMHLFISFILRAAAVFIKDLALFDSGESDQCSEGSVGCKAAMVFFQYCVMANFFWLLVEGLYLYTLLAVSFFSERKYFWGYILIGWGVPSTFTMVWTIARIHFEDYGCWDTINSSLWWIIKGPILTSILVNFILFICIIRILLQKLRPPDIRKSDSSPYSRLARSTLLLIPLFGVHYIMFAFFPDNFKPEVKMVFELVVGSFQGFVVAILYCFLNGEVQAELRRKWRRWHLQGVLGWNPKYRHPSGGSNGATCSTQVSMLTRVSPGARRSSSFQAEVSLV

B1: PB1046 (M-VIP-ELP1-120 fusion protein) (other)
chain: MHSDAVFTDNYTRLRKQMAVKKYLNSILNVPGVGVPGVGVPGGGVPGAGVPGVGVPGVGVPGVGVPGGGVPGAGVPGGGVPGVGVPGVGVPGGGVPGAGVPGVGVPGVGVPGVGVPGGGVPGAGVPGGGVPGVGVPGVGVPGGGVPGAGVPGVGVPGVGVPGVGVPGGGVPGAGVPGGGVPGVGVPGVGVPGGGVPGAGVPGVGVPGVGVPGVGVPGGGVPGAGVPGGGVPGVGVPGVGVPGGGVPGAGVPGVGVPGVGVPGVGVPGGGVPGAGVPGGGVPGVGVPGVGVPGGGVPGAGVPGVGVPGVGVPGVGVPGGGVPGAGVPGGGVPGVGVPGVGVPGGGVPGAGVPGVGVPGVGVPGVGVPGGGVPGAGVPGGGVPGVGVPGVGVPGGGVPGAGVPGVGVPGVGVPGVGVPGGGVPGAGVPGGGVPGVGVPGVGVPGGGVPGAGVPGVGVPGVGVPGVGVPGGGVPGAGVPGGGVPGVGVPGVGVPGGGVPGAGVPGVGVPGVGVPGVGVPGGGVPGAGVPGGGVPGVGVPGVGVPGGGVPGAGVPGVGVPGVGVPGVGVPGGGVPGAGVPGGGVPGVGVPGVGVPGGGVPGAGVPGVGVPGVGVPGVGVPGGGVPGAGVPGGGVPGWP

How the values were obtained:
Assay in all cases: cell-based or functional assay
[1] = molecular target: human Vasoactive Intestinal Peptide Receptor 1 (VPAC1) (human) (UniProt P32241)
[2] = molecular target: human Vasoactive Intestinal Peptide Receptor 2 (VPAC2) (human) (UniProt P41587)
[3] = molecular target: T1, human Vasoactive Intestinal Peptide …

human Vasoactive Intestinal Peptide Receptor 2 (VPAC2) (human), sequence (P41587 24-438): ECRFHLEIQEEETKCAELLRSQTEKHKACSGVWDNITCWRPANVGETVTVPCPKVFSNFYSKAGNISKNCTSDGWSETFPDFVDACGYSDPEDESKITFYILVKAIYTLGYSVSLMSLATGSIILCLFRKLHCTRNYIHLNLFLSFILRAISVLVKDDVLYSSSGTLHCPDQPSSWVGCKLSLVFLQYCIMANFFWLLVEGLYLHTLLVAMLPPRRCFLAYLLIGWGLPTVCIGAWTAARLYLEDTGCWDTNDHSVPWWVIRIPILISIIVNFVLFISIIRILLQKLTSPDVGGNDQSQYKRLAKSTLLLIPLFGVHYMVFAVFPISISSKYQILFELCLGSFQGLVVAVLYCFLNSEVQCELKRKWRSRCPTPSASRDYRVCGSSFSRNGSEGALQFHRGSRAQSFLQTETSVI

Molecule	activity (cAMP) in CHO cells expressing VPAC1, relative to native VIP (fold less active than native VIP) [1]	activity (cAMP) in CHO cells expressing VPAC2, relative to native VIP (fold less active than native VIP) [2]	activity (cAMP) in CHO cells expressing VPAC1, relative to native VIP [3]
PB1120 (VIP-ELP1-120 fusion peptide)	1.4	1.5	
B1			~11 fold less active than native VIP
